Positions of bridges follow the written chain, without caps; N, C: chain ends. No end group written: not given here.
Assays:
Assay in all cases: ELISA
[1] = target: T1, CD81 EC2 domain (extracellular-2 domain of tetraspanin CD81, residues 113-201) (UniProt P60033 113-201)
T1 sequence: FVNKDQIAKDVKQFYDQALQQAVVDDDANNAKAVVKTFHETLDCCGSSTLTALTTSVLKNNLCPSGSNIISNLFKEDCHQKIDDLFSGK

[2] = target: T2, CD9 EC2 domain (extracellular-2 domain of tetraspanin CD9, residues 113-192) (UniProt P21926 113-192)
T2 sequence: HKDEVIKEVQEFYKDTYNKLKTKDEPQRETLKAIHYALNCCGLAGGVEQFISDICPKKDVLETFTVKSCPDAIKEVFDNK

[3] = target: T3, CD151 EC2 domain (extracellular-2 domain of tetraspanin CD151, residues 113-221) (UniProt P48509 113-221)
T3 sequence: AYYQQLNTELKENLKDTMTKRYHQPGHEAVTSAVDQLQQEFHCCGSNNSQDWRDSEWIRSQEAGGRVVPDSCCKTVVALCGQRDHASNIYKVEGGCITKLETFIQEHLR

Measured: binding result

B1: disulfide-linked cyclic site 2 peptide of integrin β3 (GST fusion protein) (peptide)
peptide: CRLAGIVQPNDGQSHVGSDNHYSASTTMC
modifications: disulfide 1-29; also: GST fusion protein
binds: [1] | [2] | [3]
